Measured values: the supplement of paper PMC10567573
± gives the standard deviation.

Test: protein stability index of a GFP-peptide fusion (GPS, HEK-293T) (PSI 1-6); higher = more stable
[1] = treatment: DMSO, c terminus: a fixed tail appended
[2] = treatment: MLN4924 1 uM, 8 h, c terminus: a fixed tail appended
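Further: 24-mer peptide tiles fused after GFP, lentivirally expressed, FACS-sorted into six equal bins by GFP/DsRed ratio, decoded by Illumina sequencing, PSI is the read-weighted mean bin number.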

Row | Sequence | protein stability index [1] | protein stability index [2] | protein stability index (treatment: DMSO, c terminus: native) | protein stability index (treatment: MLN4924 1 uM, 8 h, c terminus: native)
1 | TPAPPLWIGLFLVATGSQQSLAQP | 2.57 ± 0.23 | 2.94 ± 0.74 | – | –
2 | KIENGYPLHAPEAYFPYFKKHNVT [CDC14A] | 2.2 ± 0.19 | 2.32 ± 0.18 | – | –
3 | QGVEGDHCVTSDPATSPLVLAIPR [TRIM35] | 4.43 ± 0.27 | 4.66 ± 0.22 | – | –
4 | AFSNRSKQLRRQMWWRGCKIKAIM [VAMP4] | 2.35 ± 0.082 | 2.44 ± 0.27 | – | –
5 | GRLGKQCRERWHNHLNPEVKKSCW [MYBL2] | 2.42 ± 0.17 | 2.99 ± 0.41 | – | –
6 | SCMASLWTAPLVMRTTNLDNRCKL [CDC25A] | 2.33 ± 0.084 | 2.43 ± 0.15 | – | –
7 | EKKLTVRQDLEDRYAEHVAATQAL [C22orf31] | 4.55 ± 0.12 | 4.53 ± 0.21 | – | –
8 | RNARIVHLVEETRIHVLPSLNPDG [CPXM2] | 2.97 ± 0.037 | 3.2 ± 0.24 | – | –
9 | RMDFAAKLMKNIRFPLMTPQELIN [KLHL13] | 2.01 ± 0.31 | 1.94 ± 0.27 | – | –
10 | DLVMALSAGGHGGLLNDTSAPHLE [KCNA4] | 2.8 ± 0.35 | 2.58 ± 0.26 | – | –
11 | CREQLDIMNDLSNRVWSISQEPDP [TRIM14] | 3.43 ± 0.28 | 3.43 ± 0.21 | – | –
12 | LQLPQLSDLGLLRLCTWLLALSPD [FANCE] | 2.89 ± 0.6 | 2.37 ± 0.3 | – | –
13 | AFQNDVYEWARDHRAHHKFSETHA [SCD] | 2.65 ± 0.22 | 2.69 ± 0.33 | – | –
14 | RPALAQQAQGARAGGSARRPDTGD [GMCL1] | 5.28 ± 0.19 | 5.33 ± 0.13 | – | –
15 | NKTNKNSVSSCDQEHQSALEEAKQ [SMOC2] | 5.13 ± 0.43 | 5.57 ± 0.3 | – | –
16 | AVEDGLQQFKQYSRHVTTRAALTY [M1AP] | 3.14 ± 0.42 | 3.1 ± 0.23 | – | –
17 | RKKSADVLALADEAGYYFFNGNYK [ADAMTSL2] | 3 ± 0.22 | 3.05 ± 0.33 | – | –
18 | ALFFKNIMNIIDIVSILPYFITLG [KCNA4] | 2.86 ± 0.21 | 3.43 ± 0.4 | – | –
19 | GGDAGHAPFPPPPAADGARAPRSP [C6orf223] | 5.39 ± 0.28 | 5.5 ± 0.27 | – | –
20 | LRTLRDFPAEERARVLDRRGCSRV [ANKRD9] | 3.91 ± 0.32 | 4.06 ± 0.29 | – | –
21 | VLLHGPPGTGKTSLCKALAQKLTI [TRIP13] | 2.58 ± 0.6 | 2.31 ± 0.53 | – | –
22 | ASSPGNPTALANGTVQAPKQKGD [LPCAT4] | – | – | 5.31 ± 0.21 | 5.22 ± 0.35

Row | Sequence | protein stability index [1] | protein stability index [2] | protein stability index (treatment: DMSO, c terminus: native) | protein stability index (treatment: MLN4924 1 uM, 8 h, c terminus: native)
23 | SRVTDPVGDIVSFMHSFEEKYGRA [FAF2] | 3.34 ± 0.25 | 3.59 ± 0.36 | – | –
24 | REDDKLVVECVMKGVTSTRVYERA [FABP4] | 3.68 ± 0.38 | 4.09 ± 0.29 | – | –
25 | EILEQQQQERNDTNFHGVCMFCNE [ZNF277] | 3.73 ± 0.37 | 3.77 ± 0.43 | – | –
26 | KGTENLQRAQAEVLQSVRELSRSR [FCHSD1] | 4.61 ± 0.27 | 4.41 ± 0.38 | – | –
27 | QLGDLHTCLMMDMKACQEDDVRLL [INTS3] | 3.41 ± 0.18 | 3.56 ± 0.19 | – | –
28 | KVVKSAQHYTETALDEIKLLKCVR [SRPK2] | 2.72 ± 0.32 | 2.68 ± 0.21 | – | –
29 | EPAARISPLGALQHGFFRRTADEA [DYRK1B] | 4.08 ± 0.13 | 3.89 ± 0.22 | – | –
30 | YESSADIAGDEGTQIPADEDTQTD [TAF7L] | 5.61 ± 0.24 | 5.53 ± 0.24 | – | –
31 | YEMTDLTNNKVYAAKIIPHSRVAK [PLK2] | 3.78 ± 0.092 | 4.05 ± 0.28 | – | –
32 | GYCSNQLAAKALLDQKKQDPRVQD [NET1] | 4.89 ± 0.23 | 4.9 ± 0.21 | – | –
33 | TDIDLQTIDNDIVSMEIFFKAWLH [M1AP] | 2.39 ± 0.33 | 2.34 ± 0.45 | – | –
34 | DLSKIIRTSSGTSREKTACAINKV [FAM98B] | 3.06 ± 0.27 | 3.19 ± 0.6 | – | –
35 | AESLKGKLEEERAKLHDVELHQVA [GNB5] | 5.02 ± 0.33 | 5.23 ± 0.29 | – | –
36 | KYMPHLCQDSSGEVSCQCQLHPPR | 2.76 ± 0.58 | 3.6 ± 0.9 | – | –
37 | LEVDHIRTIYHMFIALLILFILST [SOAT1] | 2.58 ± 0.39 | 2.43 ± 0.41 | – | –
38 | RFCSEIKSSKYGEGHQAWIVGIVE [SEPHS2] | 2.23 ± 0.21 | 2.12 ± 0.37 | – | –
39 | NSKPQDLTDAYGPPSNFLEIDIFN [SNX12] | 3.63 ± 0.18 | 3.83 ± 0.24 | – | –
40 | MAATCEISNIFSNYFSAMYSSEDS [ELF3] | 2.29 ± 0.22 | 2.3 ± 0.21 | – | –
41 | RGGRQKYKRRIDAENSPYLNPQLV [ESRRG] | 3.59 ± 0.25 | 3.93 ± 0.21 | – | –
42 | GAERKAALCELLEKETQIIASIGR [IQUB] | 3.21 ± 0.61 | 3.2 ± 0.2 | – | –
43 | RVRFGQQKRYQDWFQRQYLSTPDS [INTS3] | 2.85 ± 0.23 | 3.07 ± 0.14 | – | –
44 | VESSLNVKTKKNAPSATIHQGEEE [FBXO34] | 5.37 ± 0.22 | 5.49 ± 0.2 | – | –
